Consider 39 molecules from patent US20230158141A1 (YAFEI SHANGHAI BIOLOG MEDICINE SCIENCE AND TECHNOLOGY, published 2023).

Experiment [1] deals with T1, PD-1 (UniProt Q15116 25-167, limits assumed). The experiment can be described thus: ELISA, OD mutant/OD WT; B=70-90%.
Experiment [2] addresses T1, PD-1. In words: ELISA, OD mutant/OD WT; ↓=less than 70%.
Experiment [3] concerns the target T2, CTLA-4 (UniProt P16410 36-162, limits assumed). In words: ELISA, OD mutant/OD WT; A=90-110%.
T2 sequence (P16410 36-162 limits assumed): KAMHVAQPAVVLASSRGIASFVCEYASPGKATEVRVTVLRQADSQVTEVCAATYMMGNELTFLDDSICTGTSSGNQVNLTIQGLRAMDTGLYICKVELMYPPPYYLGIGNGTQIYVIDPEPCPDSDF
The target of experiment [4] is T2, CTLA-4. In words: ELISA, OD mutant/OD WT; A=90-110%. The source holds these as a separate data set.
Experiment [5] concerns the target T3, CTLA-4 (UniProt P16410 36-162, limits assumed).
T3 construct: also called CTLA-4 protein
In words: ELISA; S47 on the Cys. (In general: ELISA stands for enzyme-linked immunosorbent assay.)
T3 sequence (P16410 36-162 limits assumed): as above

Experiment [6] has as its target T2, CTLA-4. In words: ELISA, conjugate vs WT antibody.

Substitutions are numbered along the chain they refer to. Numbers in names are those of the source. Like-named read-outs stand apart in the source and are kept apart here.

T1 sequence (Q15116 25-167 limits assumed): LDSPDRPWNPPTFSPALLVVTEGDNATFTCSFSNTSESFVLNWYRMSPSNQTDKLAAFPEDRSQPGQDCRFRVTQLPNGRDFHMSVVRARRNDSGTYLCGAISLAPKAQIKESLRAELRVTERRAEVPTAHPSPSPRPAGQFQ

B1: anti-PD-1 antibody 2 light chain A25C (antibody, human IgG4 S228P, kappa, V domains shown)
VH: QVQLVESGGGVVQPGRSLRLDCKASGITFSNSGMHWVRQAPGKGLEWVAVIWYDGSKRYYADSVKGRFTISRDNSKNTLFLQMNSLRAEDTAVYYCATNDDYWGQGTLVTVSS
VL: EIVLTQSPATLSLSPGERATLSCRCSQSVSSYLAWYQQKPGQAPRLLIYDASNRATGIPARFSGSGSGTDFTLTISSLEPEDFAVYYCQQSSNWPRTFGQGTKVEIKR
Turning to B1, in the experiment with PD-1 [1], the “binding activity (OD after mutation/OD wild type)” value was in the range of 70 to 90%.

B2: anti-PD-1 antibody 2 light chain A55C (antibody, human IgG4 S228P, kappa, V domains shown)
VH: B1 VH
VL: B1 VL with C25A, A55C
In the case of B2, the “binding activity (OD after mutation/OD wild type)” value in the experiment with PD-1 [1] was in the range of 70 to 90%.

B3: anti-PD-1 antibody 2 light chain A60C (antibody, human IgG4 S228P, kappa, V domains shown)
VH: B1 VH
VL: B1 VL with C25A, A60C
For B3, the “binding activity (OD after mutation/OD wild type)” value in the experiment with PD-1 [1] lay in the range of 70 to 90%.

B4: anti-PD-1 antibody 2 heavy chain K65C (antibody, human IgG4 S228P, kappa, V domains shown)
VH: B1 VH with K65C
VL: B1 VL with C25A
Regarding B4, the “binding activity vs wild type” value in the experiment with PD-1 [2] is < 70%.

B5: anti-PD-1 antibody 2 light chain A51C (antibody, human IgG4 S228P, kappa, V domains shown)
VH: B1 VH
VL: B1 VL with C25A, A51C
Turning to B5, in the experiment with PD-1 [1], the “binding activity (OD after mutation/OD wild type)” value was 70 to 90%.

B6: anti-PD-1 antibody 2 light chain I58C (antibody, human IgG4 S228P, kappa, V domains shown)
VH: B1 VH
VL: B1 VL with C25A, I58C
B6: the “binding activity (OD after mutation/OD wild type)” value in the experiment with PD-1 [1] lay within 70 to 90%.

B7: anti-PD-1 antibody 2 heavy chain Y60C (antibody, human IgG4 S228P, kappa, V domains shown)
VH: B1 VH with Y60C
VL: B1 VL with C25A
For B7, the “binding activity vs wild type” value with PD-1 [2] was < 70%.

B8: anti-PD-1 antibody 2 heavy chain Y53C (antibody, human IgG4 S228P, kappa, V domains shown)
VH: B1 VH with Y53C
VL: B1 VL with C25A
As for B8, the “binding activity vs wild type” value in the experiment with PD-1 [2] was < 70%.

B9: anti-PD-1 antibody 2 heavy chain Y59C (antibody, human IgG4 S228P, kappa, V domains shown)
VH: B1 VH with Y59C
VL: B1 VL with C25A
As for B9, the “binding activity vs wild type” value with PD-1 [2] was < 70%.

B10: anti-PD-1 antibody 2 heavy chain K57C (antibody, human IgG4 S228P, kappa, V domains shown)
VH: B1 VH with K57C
VL: B1 VL with C25A
B10: the “binding activity vs wild type” value with PD-1 [2] is < 70%.

B11: anti-PD-1 antibody 2 heavy chain D62C (antibody, human IgG4 S228P, kappa, V domains shown)
VH: B1 VH with D62C
VL: B1 VL with C25A
B11: the “binding activity vs wild type” value with PD-1 [2] was < 70%.

B12: anti-CTLA-4 antibody heavy chain A61C (antibody, human IgG1, kappa, V domains shown)
VH: QVQLVESGGGVVQPGRSLRLSCAASGFTFSSYTMHWVRQAPGKGLEWVTFISYDGNNKYYCDSVKGRFTISRDNSKNTLYLQMNSLRAEDTAIYYCARTGWLGPFDYWGQGTLVTVSS
VL: not shown
Take B12: the “binding activity (OD after mutation/OD wild type)” value with CTLA-4 [3] was in the range of 90 to 110%.

B13: anti-CTLA-4 antibody light chain S95C (antibody, human IgG1, kappa, V domains shown)
VH: B12 VH with C61A
VL: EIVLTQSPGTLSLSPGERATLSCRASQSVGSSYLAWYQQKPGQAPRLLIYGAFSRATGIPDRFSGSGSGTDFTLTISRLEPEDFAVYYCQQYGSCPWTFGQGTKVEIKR
With B13, the “binding activity (OD after mutation/OD wild type)” value with CTLA-4 [4] was 90 to 110%.

B14: Ipilimumab L32 Tyr to Cys (antibody, V domains shown)
VH: B12 VH with C61A
VL: not shown
modifications: chain 2 pos 33 (Kabat L32): introduced Cys carrying the conjugated group of the row (R4-7, R4-8 or S47), written C
For B14, the “Activity after S47 (40 kD) blocking” value with CTLA-4 [5] was 13%.

B15: anti-CTLA-4 antibody heavy chain L102C (antibody, human IgG1, kappa, V domains shown)
VH: B12 VH with C61A, L102C
VL: not shown
B15: the “binding activity (OD after mutation/OD wild type)” value in the experiment with CTLA-4 [3] fell in the range of 90 to 110%.

B16: anti-CTLA-4 antibody light chain G58C-R4-1 (antibody, human IgG1, kappa, V domains shown)
VH: B12 VH with C61A
VL: not shown
modifications: R4-1 on Cys 58
With B16, in the experiment with CTLA-4 [6], the “binding activity (% of WT)” value stood at 88.1%.

B17: anti-CTLA-4 antibody light chain G30C-R4-1 (antibody, human IgG1, kappa, V domains shown)
VH: B12 VH with C61A
VL: not shown
modifications: R4-1 on Cys 30
With B17, the “binding activity (% of WT)” value with CTLA-4 [6] amounted to 95.3%.

B18: anti-CTLA-4 antibody heavy chain S30C (antibody, human IgG1, kappa, V domains shown)
VH: B12 VH with S30C, C61A
VL: not shown
As for B18, in the experiment with CTLA-4 [3], the “binding activity (OD after mutation/OD wild type)” value fell in the range of 90 to 110%.

B19: anti-CTLA-4 antibody heavy chain G66C (antibody, human IgG1, kappa, V domains shown)
VH: B12 VH with C61A, G66C
VL: not shown
In the case of B19, in the experiment with CTLA-4 [3], the “binding activity (OD after mutation/OD wild type)” value lay in the range of 90 to 110%.

B20: anti-CTLA-4 antibody heavy chain G55C (antibody, human IgG1, kappa, V domains shown)
VH: B12 VH with G55C, C61A
VL: not shown
For B20, the “binding activity (OD after mutation/OD wild type)” value in the experiment with CTLA-4 [3] was 90 to 110%.

B21: anti-CTLA-4 antibody light chain T98C-R4-1 (antibody, human IgG1, kappa, V domains shown)
VH: B12 VH with C61A
VL: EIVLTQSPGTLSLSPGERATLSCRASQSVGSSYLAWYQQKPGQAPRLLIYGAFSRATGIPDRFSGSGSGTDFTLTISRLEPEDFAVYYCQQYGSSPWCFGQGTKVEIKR
modifications: R4-1 on Cys 98
Regarding B21, the “binding activity (% of WT)” value with CTLA-4 [6] came to 91%.

B22: anti-CTLA-4 antibody heavy chain S31C (antibody, human IgG1, kappa, V domains shown)
VH: B12 VH with S31C, C61A
VL: not shown
As for B22, in the experiment with CTLA-4 [3], the “binding activity (OD after mutation/OD wild type)” value was in the range of 90 to 110%.

B23: anti-CTLA-4 antibody light chain G93C-R4-1 (antibody, human IgG1, kappa, V domains shown)
VH: B12 VH with C61A
VL: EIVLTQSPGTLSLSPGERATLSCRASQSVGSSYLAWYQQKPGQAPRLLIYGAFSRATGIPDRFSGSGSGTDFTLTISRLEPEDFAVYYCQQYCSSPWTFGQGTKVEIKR
modifications: R4-1 on Cys 93
Regarding B23, in the experiment with CTLA-4 [6], the “binding activity (% of WT)” value is 99.1%.

B24: anti-CTLA-4 antibody light chain S32C-R4-1 (antibody, human IgG1, kappa, V domains shown)
VH: B12 VH with C61A
VL: not shown
modifications: R4-1 on Cys 32
Turning to B24, in the experiment with CTLA-4 [6], the “binding activity (% of WT)” value was determined as 99%.

B25: Ipilimumab L54 Arg to Cys (antibody, V domains shown)
VH: B12 VH with C61A
VL: not shown
modifications: chain 2 pos 55 (Kabat L54): introduced Cys carries R4-26 (or S47, 40 kD PEG linker) on its thiol, written C
For B25, in the experiment with CTLA-4 [5], the “Activity after S47 (40 kD) blocking” value was determined as 17%.

B26: anti-CTLA-4 antibody light chain S31C-R4-1 (antibody, human IgG1, kappa, V domains shown)
VH: B12 VH with C61A
VL: not shown
modifications: R4-1 on Cys 31
Regarding B26, the “binding activity (% of WT)” value with CTLA-4 [6] was 80.9%.

B27: anti-CTLA-4 antibody light chain S95C-R4-1 (antibody, human IgG1, kappa, V domains shown)
VH: B12 VH with C61A
VL: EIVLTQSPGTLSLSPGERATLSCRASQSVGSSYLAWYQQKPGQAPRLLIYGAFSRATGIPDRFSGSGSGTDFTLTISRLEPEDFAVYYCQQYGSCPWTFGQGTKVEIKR
modifications: R4-1 on Cys 95
B27: the “binding activity (% of WT)” value in the experiment with CTLA-4 [6] was 95.4%.

B28: anti-CTLA-4 antibody light chain T57C (antibody, human IgG1, kappa, V domains shown)
VH: B12 VH with C61A
VL: not shown
B28: the “binding activity (OD after mutation/OD wild type)” value in the experiment with CTLA-4 [4] fell in the range of 90 to 110%.

B29: anti-CTLA-4 antibody light chain A35C-R4-1 (antibody, human IgG1, kappa, V domains shown)
VH: B12 VH with C61A
VL: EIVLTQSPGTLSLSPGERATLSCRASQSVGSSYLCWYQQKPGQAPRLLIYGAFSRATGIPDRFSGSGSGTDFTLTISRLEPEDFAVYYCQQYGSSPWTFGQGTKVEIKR
modifications: R4-1 on Cys 35
For B29, in the experiment with CTLA-4 [6], the “binding activity (% of WT)” value is 91.5%.

B30: anti-CTLA-4 antibody light chain S94C (antibody, human IgG1, kappa, V domains shown)
VH: B12 VH with C61A
VL: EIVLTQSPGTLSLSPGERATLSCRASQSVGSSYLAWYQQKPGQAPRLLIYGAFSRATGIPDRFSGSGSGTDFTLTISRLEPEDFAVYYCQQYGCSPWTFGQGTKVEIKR
Turning to B30, the “binding activity (OD after mutation/OD wild type)” value in the experiment with CTLA-4 [4] was in the range of 90 to 110%.

B31: anti-CTLA-4 antibody light chain S54C-R4-1 (antibody, human IgG1, kappa, V domains shown)
VH: B12 VH with C61A
VL: not shown
modifications: R4-1 on Cys 54
Consider B31, for which the “binding activity (% of WT)” value in the experiment with CTLA-4 [6] worked out at 97.7%.

B32: anti-PD-1 antibody 1 heavy chain K65C (antibody, human IgG4 S228P, kappa, V domains shown)
VH: QVQLVQSGVEVKKPGASVKVSCKASGYTFTNYYMYWVRQAPGQGLEWMGGINPSNGGTNFNEKFCNRVTLTTDSSTTTAYMELKSLQFDDTAVYYCARRDYRFDMGFDYWGQGTTVTVSS
VL: EIVLTQSPATLSLSPGERATLSCRASKGVSTSGYSYLHWYQQKPGQAPRLLIYLASYLESGVPARFSGSGSGTDFTLTISSLEPEDFAVYYCQHSRDLPLTFGGGTKVEIKR
In the case of B32, the “binding activity vs wild type” value in the experiment with PD-1 [2] is < 70%.

B33: anti-PD-1 antibody 1 light chain L37C (antibody, human IgG4 S228P, kappa, V domains shown)
VH: B32 VH with C65K
VL: B32 VL with L37C
On to B33, for which the “binding activity (OD after mutation/OD wild type)” value in the experiment with PD-1 [1] was 70 to 90%.

B34: anti-PD-1 antibody 1 light chain L54C (antibody, human IgG4 S228P, kappa, V domains shown)
VH: B32 VH with C65K
VL: B32 VL with L54C
For B34, the “binding activity (OD after mutation/OD wild type)” value in the experiment with PD-1 [1] lay within 70 to 90%.

B35: anti-PD-1 antibody 1 light chain T101C (antibody, human IgG4 S228P, kappa, V domains shown)
VH: B32 VH with C65K
VL: B32 VL with T101C
On to B35, for which the “binding activity (OD after mutation/OD wild type)” value with PD-1 [1] was in the range of 70 to 90%.

B36: anti-PD-1 antibody 1 light chain A55C (antibody, human IgG4 S228P, kappa, V domains shown)
VH: B32 VH with C65K
VL: B32 VL with A55C
Consider B36, for which, in the experiment with PD-1 [1], the “binding activity (OD after mutation/OD wild type)” value lay in the range of 70 to 90%.

B37: anti-PD-1 antibody 1 heavy chain Y32C (antibody, human IgG4 S228P, kappa, V domains shown)
VH: B32 VH with Y32C, C65K
VL: B32 VL
Consider B37, for which, in the experiment with PD-1 [2], the “binding activity vs wild type” value is < 70%.

B38: anti-PD-1 antibody 1 light chain A25C (antibody, human IgG4 S228P, kappa, V domains shown)
VH: B32 VH with C65K
VL: B32 VL with A25C
As to B38, the “binding activity (OD after mutation/OD wild type)” value with PD-1 [1] is 70 to 90%.

B39: anti-PD-1 antibody 1 light chain T31C (antibody, human IgG4 S228P, kappa, V domains shown)
VH: B32 VH with C65K
VL: B32 VL with T31C
Regarding B39, the “binding activity (OD after mutation/OD wild type)” value in the experiment with PD-1 [1] was 70 to 90%.
